Experimental findings from patent US20110189260A1, “USE OF ZINC CHELATORS TO INHIBIT BIOFILM FORMATION” (UNIVERSITY OF CINCINNATI, priority 2008, published 2011) are described below.

Series [1] has as its system S. epidermidis RP62A biofilms. As to the kind of experiment: RP62A biofilms on polystyrene visualized with crystal violet (FIG. 3A, 3C, 4, 7, 8). The format is cell-based. Conditions: RP62A, at minimal inhibitory dose of DTPA (30 μM), FIG. 3C. The protocol: (§1) FIG. 3. (A) S. epidermidis RP62A biofilms formed on polystyrene and were visualized with crystal violet; addition of the Zn^2+ chelator DTPA (≧30 μM) inhibits biofilm formation. Representative wells have been scanned (bottom). Untreated (“RP62A”) and vehicle (“HCl”) controls are shown. Error bars show standard deviation (* indicates p<0.05 relative to untreated control; n=3); (B) Methicillin-resistant S. aureus USA300 biofilms form on fibronectin-coated plates but are inhibited by addition of DTPA (≧30 μM). (*: p<0.05; n=4); (C) Addition of 5-20 μM ZnCl2 at a minimal inhibitory dose of DTPA (30 μM) rescues biofilm formation by RP62A.
FIG. 4. […] (*: p<0.05 relative to RP62A control at the relevant Zn^2+ concentration; n=3); (B) Dose response of biofilm inhibition by MBP-Brpt1.5 at a fixed 1 mM ZnCl2 concentration. (*: p<0.0005; n=3); (C) The “zinc zipper” model for intercellular adhesion in staphylococcal biofilms mediated by zinc-dependent self-association of G5 domains.
FIG. 7. […] All data at 30 μM DTPA show statistically significant decreases compared to no-treatment control (RP62A). Statistically significant increases over the 0 μM MnCl2/30 μM DTPA datapoint are marked with an asterisk (*).
To test the physiological role of Zn^2+-mediated G5 adhesion in the formation of staphylococcal biofilms, both S. epidermidis and S. aureus biofilms were grown in culture in the presence or absence of the Zn^2+ chelator diethylenetriaminepentaacetic acid (DTPA). DTPA was non-toxic at all concentrations tested (up to 100 μM). S. epidermidis strain RP62A formed robust biofilms when cultured in media alone, but biofilm growth was inhibited by non-toxic doses of DTPA (≧30 μM) (FIG. 3A).
To determine whether Zn^2+-dependent biofilm formation is specifically dependent upon G5 domain-mediated self-assembly, soluble Brpt1.5 was added to S. epidermidis RP62A biofilms as a maltose-binding protein (MBP) fusion. Because of the higher Zn^2+ concentrations required to induce dimerization in the short construct compared to full-length Aap, inhibition by MBP-Brpt1.5 was tested at Zn^2+ concentrations ranging up to 1 mM. RP62A biofilms were inhibited by soluble MBP-Brpt1.5 in the presence of 0.75 and 1 mM ZnCl2, whereas addition of MBP alone had no effect (FIG. 4A). […] Thus, addition of even a single intact zinc adhesion module in a soluble form is capable of inhibiting biofilm formation, highlighting the role of this domain as a Zn^2+-dependent adhesion module in staphylococcal biofilms.

Series [2] deals with Methicillin-resistant S. aureus USA300 biofilms. As to the kind of experiment: USA300 biofilms on fibronectin-coated plates (FIG. 3B, 3D). The settings on record: USA300, at minimal inhibitory dose of DTPA (30 μM), FIG. 3D. The format is cell-based. The protocol:
as §1
S. aureus strain USA300, which is responsible for recent epidemic outbreaks of community-acquired methicillin-resistant S. aureus (MRSA) infections, formed biofilms on fibronectin-coated plates. As observed for S. epidermidis, the MRSA biofilms were inhibited by Zn^2+ chelation (≧30 μM DTPA) (FIG. 3B). […] Like S. epidermidis, the MRSA strain USA300 could be rescued by the addition of 15-20 μM ZnCl2 (FIG. 3D). Importantly, at the minimal inhibitory concentration of DTPA (30 μM), biofilm growth by both staphylococcal species could be rescued by the addition of 5-20 μM ZnCl2; these Zn^2+ concentrations are similar to the physiological range in human plasma (12-16 μM resting concentration).

Series [3] addresses Brpt2.5 (Aap construct with two G5 domains and the C-terminal cap) (Staphylococcus epidermidis).
The target is the same in series [4]. As to the kind of experiment: sedimentation equilibrium AUC, monomer-dimer association at 2 mM Zn.
Series [5] has the same target. As to the kind of experiment: sedimentation equilibrium AUC, monomer-dimer association at 5 mM Zn.
Series [6] shares this target. Nature of the series: sedimentation equilibrium AUC at 0 mM Zn; sequence mass monomer 35,971, dimer 71,942.
For series [7] the target is unchanged. Nature of the series: sedimentation equilibrium AUC at 10 mM Zn; sequence mass monomer 35,971, dimer 71,942.
In series [8] the target is Aap (Accumulation-associated protein) on Staphylococcus epidermidis strain RP62A cells (Staphylococcus epidermidis). As to the kind of experiment: cell-based or functional assay.
Series [9] concerns the molecule itself. Nature of the series: sedimentation velocity analytical ultracentrifugation; self-association with and without 10 mM ZnCl2, normalized c(s) [panel E].
Series [10] deals with G5 domains of Aap (Zn^2+-mediated monomer-dimer association). Conditions: 10 mM ZnCl2, pH 7.4 to 6.0, FIG. 6B.
Description: The dashed line label (- - -) represents cation-free Brpt1.5; (B) Far-UV CD spectrum of Brpt1.5 in the presence (squares) and absence (triangles) of Zn; (C) Sedimentation equilibrium analysis of Zn^2+-mediated dimerization of Brpt1.5 (triangles) and Brpt2.5 (squares). […] Error bars show 95% confidence intervals; (D) Linked equilibrium plot of Zn binding by Brpt1.5.
(A) Sedimentation velocity analysis of the Zn^2+-dependent dimerization of Brpt1.5 as a function of pH in 20 mM Tris, 20 mM MES, 50 mM NaCl, and 10 mM ZnCl2. […] Dashed lines show data collected in the absence of Zn^2+, and solid lines show data collected at 10 mM ZnCl2.
To analyze the linked equilibria between dimerization and Zn^2+ binding, the logarithm of the dimerization association constant was plotted against the logarithm of the free Zn^2+ concentration to reveal the net number of Zn^2+ ions participating in the dimerization interface.
Series [11] concerns the molecule itself.
Series [12] concerns the molecule itself. Nature of the series: sedimentation equilibrium AUC, monomer-dimer association at 2 mM Zn; 2 mM Zn (ZnCl2), sedimentation equilibrium.
Series [13] deals with the molecule itself. Nature of the series: sedimentation equilibrium AUC, monomer-dimer association at 5 mM Zn; 5 mM Zn (ZnCl2), sedimentation equilibrium.
Series [14] concerns the molecule itself. Nature of the series: sedimentation equilibrium AUC, monomer-dimer association at 10 mM Zn; 10 mM Zn (ZnCl2), sedimentation equilibrium.

Where a chain is given by its changes, count along the chain named. Names and notes keep the numbering of the source. Values joined by “and” are separate entries in the source; they are usually repeats but may differ in a detail not shown here. Equal values may be shown once.

With `[Cl-].[Cl-].[Zn+2]` [ZnCl2], the “concentration that rescues biofilm formation” value in series [1] was 5 to 20 µM; in [2], 15 to 20 µM.
The term Kd denotes the concentration at which binding is half-saturated. The low end stands for a tighter complex, the high end for a looser complex. In series [3], “Brpt2.5 (Aap construct with two G5 domains and the C-terminal cap)” had an EC50 of [Zn2+] for dimerization of 3.7 mM. The Kd in series [4] was 25.5 µM; in series [5], 72 nM. Moreover, the Mexperimental (molecular weight) in [6] was determined as 37000; in [7] it was 78500.
Regarding “MBP-Brpt1.5 (soluble Brpt1.5 as a maltose-binding protein fusion) (from UniProt Q8CQD9 1089-1296)”, the concentration that completely abolished RP62A biofilm formation at 1 mM ZnCl2 in series [8] is 10 µM and 22 µM.

B1: H75A/H85A Brpt1.5 mutant (other)
chain: VDGDSITSTEEIPFDKKREFDPNLAPGTEKVVQKGEPGTKTITTPTTKNPLTGEKVGEGEPTEKITKQPVDEIVAYGGEQIPQGAKDEFDPNAPVDSKTEVPGKPGVKNPDTGEVVTPPVDDVTKYGPVDGDSITSTEEIPFDKKREFDPNLAPGTEKVVQKGEPGTKTITTPTTKNPLTGEKVGEGKSTEKVTKQPVDEIVEYGPTK
notes: also called histidine-null mutant
For B1, in series [9], the binding result is “binds”.

B2: Brpt1.5: single G5 domain of Aap B-repeat region followed by the C-terminal 79 amino acid half-repeat (protein)
chain: B1 chain with A75H, A85H
For the molecule B2, in series [10], the “apparent pKa of dimer to monomer transition” value is recorded as 6.7.

B3: Brpt1.5 (C-terminal G5 domain of the B-repeat region of Aap followed by the C-terminal 79 amino acid half-repeat) (other)
chain: B1 chain with A75H, A85H
notes: also called wild-type Brpt1.5; zinc adhesion module
As for B3, the “EC50 of [Zn2+] for dimerization” value in series [11] turned out to be 5.4 mM. Besides, the Kd in series [12] was found to be 113 µM; in series [13], 5.06 µM; in series [14] it was 353 nM.
